PMC5618021

How the values were obtained:
[1] = molecular target: MERS-five-helix bundle (MERS-5HB) (MERS-CoV) (UniProt K0BRG7); assay: ELISA
[2] = molecular target: MERS-HR2P (MERS-CoV); assay: BLI
[3] = molecular target: MERS-HR2P (MERS-CoV); assay: ELISA

Substance	EC50 [1]	Kd [2]	koff [2]	kon [2]	EC50 [3]
MERS-HR2P (peptide)	31.8 nM	–	–	–	–
MERS-five-helix bundle (MERS-5HB) (from UniProt K0BRG7) (designed binder)	–	0.24 nM	1.26e-05 s⁻¹	52600 M⁻¹ s⁻¹	5.4 nM
